The numbers were not newly measured in paper PMC3798119, which cites them from elsewhere.

pKd: −log10 of the molar value.

For the series, the target named is basigin (CD147) (Homo sapiens) (UniProt P35613).
Sequence of UniProt P35613 (P35613 22-325): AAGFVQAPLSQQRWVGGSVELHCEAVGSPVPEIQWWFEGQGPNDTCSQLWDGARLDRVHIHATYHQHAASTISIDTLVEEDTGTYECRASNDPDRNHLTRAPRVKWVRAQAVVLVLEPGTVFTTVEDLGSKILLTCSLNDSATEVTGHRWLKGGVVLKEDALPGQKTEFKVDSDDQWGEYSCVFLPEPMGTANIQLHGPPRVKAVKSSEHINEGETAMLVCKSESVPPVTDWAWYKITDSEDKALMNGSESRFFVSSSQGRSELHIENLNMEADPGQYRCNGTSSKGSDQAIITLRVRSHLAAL

As to RH5 (from UniProt Q8IFM5), the pKd was 5.96.

For orientation: pKd means the negative decadic logarithm of the Kd, by convention in mol/L.
